Test: label from the status in PepcDB records
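Further: failed if final PepcDB status was selected cloned or expressed and not failed if soluble or beyond.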

Sequence: MTPFTLCAATSSGNPHNNHYPNHHHITDQTSLEQVAWLDHVAATYTGDRRSSASFISSDCVVMDIDNDHTDNPDEWITPDDLAELMAGVEFMTATSRNHQKPKRTLSARPRFHVYFPISPVTDADTYAGLKRRLAGRFGFFDPQALDAGRFIYGTTNPETTIHNGTKLLDAWLDEADEIDVFAAFDASTQVIGEGSRNATLSRFAGRVLIRYGQTAQARDLFDRKASLCEPPLSDHELESIWQSACRFAAKVEAQPGYLSPEAYAELTSLRPEDFTDVGQASMLTAEYSSRLAFTEATDWLVYEGGVWSESAPAAQGIAQELTDRQLAEAGHLLEKARDELMVTGANAVLAAASSKAKALGGFTSPQRAAYRAFEDAKAYEAFVLKRRESRAITSCLREAHPMLLTTPARLDADPYLLNTPGGTWDVRDGTRRDHNPLDLITKQTALDPTDTGAEIWNRALNVFFQSDRELIGYVQRIVGLAAIGTVMVEALVIAYGDGRNGKSTFWNTIARVLGTYAGNMSADVLTIGGNRNVKPELAEAKGKRLIIAAESEEGVRLSTSTVKQLASTDQIYAEKKYKAPFAFTPSHTLILYTNHLPRVGAMDAGIWRRLIVIPFNAVIESSSDVKNYADHLYETAGGAVLAWIMEGSRLIHAEDYQLTPPAQVVAASSAYREENNWFAQFLDARCEVDPSLSERAGDLYQEYRAWAQSTSGWARPMADFNATLEQSGFERRKSKHGMYVYGLALTSEFNS
- protein production: failed

Sequence: MTVAQQAPSALNFDCETGNYHTFCPISCVSWLYQKIEDSFFLVIGTKTCGYFLQNAMGVMIFAEPRYAMAELEEGDISAQLKDYEELKRLCLQIKRDRNPSVIVWIGTCTTEIIKMDLEGLAPQLEAEIGIPIVTARANGLDYAFTQGEDTVLASMAHKCPTSAQVQGEDKEERNAIQKLLTFGRKADQEKVESEYVDHQPLVLFGSLPDPVVTNLTLELKKQGVKVSGWLPAKRYTELPVIDEGYYVAGVNPFLSRTATTLMRRRKCKLIGAPFPIGPDGTRAWIEKICSVLGIEPQGLEEREAQIWASLEDYIQLIRGKSVFFMGDNLLEVSLARFLIRCGMTCPEIGIPYMDKRYQAAELALLEKTCSDMGVPLPNIVEKPDNYNQIQRIKALQPDLVITGMAHANPLEAQGINTKWSVEFTFAQIHGFTNARDILELATRPLRRNSQLGELGWDKLIAKDVPAQV
- protein production: failed

Sequence: MLNGLWLGFFLVAAVSAMAQWLVGGNAGIFAAMVESIFAMAKLSVEVMVLLFGTLTLWLGFLKIAEKAGIVEWLAKVLGPLFARLMPEVPPGHPALGLITMNFAANGLGLDNAATPIGLKAMRALQELNPGSTTASNAQILFLVLNASSLTLLPVTVFMYRAQQGAPDPTMVFLPILLATSVSTLVGLLSVAVMQRLRLWDPVVLAYFIPGALLLGGFMAFLGTLSAAALASLSSLLGNLTLFGVIMLFLVVGALKRVKVYEAFVEGATEGFDVAKSLLPYLVAMLVAVGVLRASGALELALDGIRHAVSWMGLDTRFVEGLPTALVKPFSGSAARAMLIETMQTQGVDSFPALVAATIQGSTETTFYVLAVYFGAVGIQRVRHAVGCALLAEFSGVVAAIFVCYWFFA
- protein production: failed

Sequence: GSSGSSGSTVVMADVSQYHVNHLVTFCLGEEDGVHTVEDASRKLAVMDSQGRVWAQEMLLRVSPSQVTLLDPVSKEELESYPLDAIVRCDAVMPRGRSRSLLLLVCQEPERAQPDVHFFQGLLLGAELIREDIQGALQNYRSGRGERSGPSSG
- protein production: not failed

Sequence: MEMNVKTNSSPTAPKPSKQTGWRIWWSLLRPHTLTAAFVPVFIGTAYSMQVGGINQIHLPLFLMMLLACLLIQAATNMFNEYFDYKRGLDHEGSVGIGGAIVRDGIQPKTVLNLAFGFFGIAILLGVYICINSSWWLAAIGLVCMAVAYLYTGGPLPIAYTPFGELTAGLFMGVIIIGISFFIQTGTVTSEVILLSIPSSILIGAILLANNIRDLDGDKENGRKTLAILVGRERAVGVLASMFIVSYIWTIALIIVGIVSPWMLIVFLSAPKAFKATKGFIGKSIPMEMVPAMIATAKTNTIFGFLMGIGLLLGYFL
- protein production: failed

Sequence: MLSIMRRPIAALAVLLAAAVSIPAQAQFSDSYKFLEAVRKKEGDKVTEALNEPGTQIVNTKDYTTGQTGLHIVVARRDLVWVQFLVAKGANVNARDNRGVTPLVLAADIGFIEGVDELIRSGARVDEANNTGETPLISAVHRRDLALVRMLIKAGANPDRPDNSGRSARDYAMLEGKGSPLLGEIEKATKDAKAAGPQKTYGPSF
- protein production: failed

Sequence: MRNLLQKCFKWQWLVCLAVGCCFSSCKDDEESTSGYDPNKPIVLTDFYPPEGKLATQVILNGSNFGDSKENVKVFFNDKEASVISVKDDRMLVLAPKRASTIEDPECVVKVQVHEQIEEYKQTFDYYIQTTVTTLVGGSTSAQVNPTGTIPLSEAQFRANIDRCICVDQDKNVFFLVDNDGKFAAFMLNEEADKLISLKSDINALFNSPVLGYNSKDDIVYQFWANRDSHEVYYFDPKTDYAPTTAISSISWDDPNFPNIEGFGVWAAKCNFTMGPDGKMYSRMLGGNLVRIDVENARGENLTNGDLVGTKDGSAYGLVFDPQDENVFYFSNNDKHCIYKYDLRTKECACWAGQEGKSGYLDGPIGQAMFNKPGQMCVDSEGNIILTDTENHCIRKITMSTGYVSTLAGKPQNSGYVNGSAEDAQFKKPLGICIDNDDVMYIGDSENRAIRRLAVELEHHHHHH
- protein production: not failed

Sequence: MDEKKIPRSLQAIIAQVKAHYADDQELQTLFEQCFLNTYLTTIQEDEQGTFVVTGDIPAMWLRDSSAQVRPYLTVVKEDADMARMIKGVIERQWRYILHDPYANAFNQTANKQGHQQDRTEMSPLVWERKYELDSLCYPIQLAYLYWKATGDDSVLQPTLKQVLETIYRIWKIEQDHEAKSSYSFERDDCRVSDTLLRKGKGGYSVPTGMTWSGFRPSDDACLYGYLIPANMFAVVVSNYAVELLTAMEEIKLAEEFRELEADIRQGIGQYGKMDHPVYGEIYVYETDGNGRVNLMDDANVPSLLAIPYLGYTTADDPVYQNTRRFILSRDNPYYYEGSYAKGVGSPHTPDHYVWHISLAIQGMTAIDSKEKKQIVAMFKQTHADTYFMHEGFDVDRPEQYTRSWFAWANSMFSEFLLSEAGIYVPGSPLENMKNNKAGDRHVLSTGKAAKPNQ
- protein production: failed

Sequence: MTDKKTTEKKETETAATFTEELTAVLEEIKEEPVKEKKKGEIVTIVNETDIQIGEREYRIVKNHRDAFDPERLGERFSEVLARYDYIVGDWGYEQLRLRGFFDTSNRRAAPDQRIDTLEDYLYEYCNFGCAYFVIERTGERKEKTTHRRRRHKKNNRSNAFVEEKSAPANKNSKPVIRTRKEENKKTTTPKQPSPKKSGKGFTIRQREELEHHHHHH
- protein production: not failed

Sequence: MRVVVMGCGRVGASVADGLSRIGHEVAIIDRDSAAFNRLSPQFAGERVLGQGFDRDVLLRAGIQGADAFAAVSSGDNSNIISARLARETFGVPRVVARIYDAKRAEVYERLGIPTIATVPWTTDRLLNALMQDTETAKWRDPTGTVAVAEVVLHEDWVGHRATDLEQATGARIAFLIRFGTGVLPEPKTVLQAGDKVYIAAISGRAAEAAAIAALPPSEDFESGARR
- protein production: failed

Sequence: CVACSKPISGLTGAKFICFQDSQWHSECFNCGKCSVSLVGKGFLTQNKEIFCQKCGSGMDTDI
- protein production: not failed

Sequence: MSASTSSHRPIKGILKNKSSSGSSVATSGQQSGGTIQDVKRKKSQKWDESSILAAHRATYRDYDLMKANEPGTSYMSVQDNGEDSVRDVEGEDSVRGVEGKEATDASDHSCEVDEQESSEAYMRKILLHKQEKKRQFEMRRRLHYNEELNIKLARQLMWKELQSEDNENEETPQGTNEEKTAAEESEEAPLTGGLQTQSCDP
- protein production: failed

Sequence: MQAYIDRIGDFIQANQDWAGPITFLLTFGESMVLVGLLIPATALMLLTGGLIGAGTLSPWGVLAWGIAGAIAGDAVSYALGRWLGPGVMRRWPLNTQRSAVARARLFFYRYGFASVLIGRFLGPIRSTIPTVAGIMGMHHLRFQLANVLSAVAWLPLMLAPGYITARGLGAMDNAQHIGLAAGMGASVLIGCWLLVAVMRKRRQPARANRRP
- protein production: not failed

Sequence: MMSPRIGLTLQKIVETAAEIADANGVQEVTLASLAQTLGVRSPSLYNHVKGLQDVRKNLGIYGIKKLHNRLEEAAEDKRMDEAIHALGEAYVAFVRKHPGLYEATFLRDEEVRKAGDGIVKLCLQVLQQYGLEGENALHATRGFRSICHGFASIEQQGGFGLPLDLDISLHVLLETFIKGLRE
- protein production: not failed

Sequence: MNPFKNFETRQVLEETCEVHGCQLWLTKVPIKGRLEELKQCPECTKAAINIFENKLNSQSKINSKLADTYAVFERDSLVSDKLRAKSLENYEIKDEIDQHAINYAKRMEQFYRQDRTGNAIITGPSGVGKSHLTYGLAKFMNEQFKAYESPKSVLFISLVSLFTKIKESFKVDNGYRQADMIELLTRVDYLFLDDLGKESRKGDSQNNEWTHQILYEILDNRSNTIINTNLSSKEIKALYADNYGNGALSSRILEGVTGNSFAYPKDMEDRRY
- protein production: failed

Sequence: SYLPKHESVTLKNGLQVVSVPLENKTGVIEVDVLYKVGSRNETMGKSGIAHMLEHLNFKSTKNLKAGEFDKIVKRFGGVSNASTSFDITRYFIKTSQANLDKSLELFAETMGSLNLKEDEFLPERQVVAEERRWRTDNSPIGMLYFRFFNTAYVYHPYHWTPIGFMDDIQNWTLKDIKKFHSLYYQPKNAIVLVVGDVNSQKVFELSKKHFESLKN
- protein production: failed

Sequence: MSNHRHDHSLPSDADSRYLVAALTLLAAFMITEIITAVISGSLALLSDAGHMLSDIGAIAIALWAARLTRRRPQGSWTWGWKRAEIMSAAVNGVTLLVVAILVGIEAVRRLVTPPAVGGGLVMVIAAVGVVVNVAVAWLVARANRRSLNVEGAYQHILTDLFGFIGTLVAGLVIVTTGWTRADAIASLIICGLMLRAAWSLLSQTGRILMEVAPASLDLDEVRHHLMDLDHVRSVHDLHAWTVSSDLPALSAHIVVEDSCFADGHAPILLAQIQQCLSGHFDLDHSTLQLEPPRHAGTENQTM
- protein production: failed

Sequence: DQKGDKVVIRGNNYVSIATGLNWYLKYYAGIHLSWNGMQAKLPAVLPPVTKKERRETTLPYRYDLNYCTFSYSMAFWDWNRWEKEIDWMALHGINIPLAVTGAEAVWHNVLDKLGYTKTEINEFISGPGFFAWWLMNNLEGWGGPNPDSWYTRQIALQKKILKRMREYGIEPVLPGYCGMVPHNAKEKLGLNVSDPGTWCGYRRPAFLQPSDPRFEEISSLYYKELEKLYGKANFYSMDPFHEGGNTAGVDLDAAGKAVMKAMKKANPKAVWVAQAWQANPRPKMIENLKAGDLLILDLTSECRPQWGDSTSEWYRKNGYGQHDWIYCMLLNYGGNVGLHGKMDNVIDNFYLAKADPHASATLKGVGMTPEGIENNPVMYELVMELPWRPDRFTKEEWLKEYVKARYGVDDPVVQAAWTNLANSIYNSPKNLTQQGTHESVFCARPAEDVYQVSSWSEMKDYYRPQEVIEAARLMVSVADRFKGNNNFEYDLVDIVRQALAEKGRLMQKAVTAAYRAGDKQLFALASGKFLDLILLQDKLLGTRPEFRVGKWIEEARALGDTPEEKELYEWNARVQITTWGNRNAADYGGLRDYAHKEWNGLLKDFYYMRWKLYFDFLSQRIEGKTPAEIDFYAIEEPWTKAANPYSAEAEGDCIEVAKQVMQAVE
- protein production: failed

Sequence: MADHNNTPPFDLTKLDHYIKYQPREEAEDFFVHVEVKVLGKGSSPLEISFSTSVYEFVWEDEDCYELVELYEFFTEDAGIDAFEAQFLVNDLILYVNKTTRPLDEDFTGVFKLMAEVTLKPVQLNHAGSQKTESQQP
- protein production: failed

Sequence: MLPLLVGTGVLVFLLLFGDSLLQDSDSYWQIETGRWILAHGTVPTVDSFSFSKAGEPWQSSSWLAQLIFALAMQAGWAGPVIVTALAVAAALAMFTAYLERYASALVTAALALAAMVLIMPHVLARPHMLALPVMVAWFIGLIDAADRKAAPPWALLLVMALWANLHGGFVFGLMLIGPLGLEALRQAEPQRRLSLALRWAAFGIAAVAACCATPYGWGTLLAATKILSLGEVLSTLGEWASSDFSKFGTFEASLLALLGIALARGLTLPWPRLLLVLGLVHMALVHVRSIEHYALLVPMIAARPWALQLGLARKSAEAKPDLAPPAWAGVVAVIAIIAATIAAAPRLHYRFDEPQVPERALAAVQAHGAKRIFNAYIFGGYLISRHVPVFIDGRAELYGEARVMDMMRATAGRDPAALDRMLTGNDIDATMLPPSAAAVRQMDERPGWRRLYADDIAVVHVRD
- protein production: failed
